# Experimental data: paper PMC1847943 (Molecular Systems Biology, 2007)
# Biological target: the molecule itself
# Experiment: native gel or EMSA
row,Protein,stoichiometry N
1,"KaiC (natural protein, Synechococcus elongatus PCC 7942, UniProt Q79PF4 1-519, looked up, phosphorylation level changes over the incubation with KaiA, KaiB and ATP (autophosphorylation)) MTSAEMTSPNNNSEHQAIAKMRTMIEGFDDISHGGLPIGRSTLVSGTSGTGKTLFSIQFLYNGIIEFDEPGVFVTFEETPQDIIKNARSFGWDLAKLVDEGKLFILDASPDPEGQEVVGGFDLSALIERINYAIQKYRARRVSIDSVTSVFQQYDASSVVRRELFRLVARLKQIGATTVMTTERIEEYGPIARYGVEEFVSDNVVILRNVLEGERRRRTLEILKLRGTSHMKGEYPFTITDHGINIFPLGAMRLTQRSSNVRVSSGVVRLDEMCGGGFFKDSIILATGATGTGKTLLVSRFVENACANKERAILFAYEESRAQLLRNAYSWGMDFEEMERQNLLKIVCAYPESAGLEDHLQIIKSEINDFKPARIAIDSLSALARGVSNNAFRQFVIGVTGYAKQEEITGLFTNTSDQFMGAHSITDSHISTITDTIILLQYVEIRGEMSRAINVFKMRGSWHDKAIREFMISDKGPDIKDSFRNFERIISGSPTRITVDEKSELSRIVRGVQEKGPES",6
2,"KaiA (natural protein, Synechococcus elongatus PCC 7942, UniProt Q79PF6 1-284, looked up) MLSQIAICIWVESTAILQDCQRALSADRYQLQVCESGEMLLEYAQTHRDQIDCLILVAANPSFRAVVQQLCFEGVVVPAIVVGDRDSEDPDEPAKEQLYHSAELHLGIHQLEQLPYQVDAALAEFLRLAPVETMADHIMLMGANHDPELSSQQRDLAQRLQERLGYLGVYYKRDPDRFLRNLPAYESQKLHQAMQTSYREIVLSYFSPNSNLNQSIDNFVNMAFFADVPVTKVVEIHMELMDEFAKKLRVEGRSEDILLDYRLTLIDVIAHLCEMYRRSIPRET",2
3,"KaiB (natural protein, Synechococcus elongatus PCC 7942, UniProt Q79PF5 1-102, looked up) MSPRKTYILKLYVAGNTPNSVRALKTLKNILEVEFQGVYALKVIDVLKNPQLAEEDKILATPTLAKVLPLPVRRIIGDLSDREKVLIGLDLLYGELQDSDDF",4
